Values belong to the molecule of their own block, whether it stands above or below them.
Experiments:
[1] = target: T1, Ca. Woesearchaeota archaeon SpeD homolog (PIN80235) (Candidatus Woesearchaeota archaeon CG10_big_fil_rev_8_21_14_0_10_34_8, UniProt A0A2G9MN15); assay: coupled CO2-release assay (NADH, A340), Michaelis-Menten fit; type: biochemical; details: 50 mM Hepes pH 7.7, 100 mM NaCl, 1 mM DTT, 26 °C; pyruvoyl-dependent decarboxylation
T1 construct: self-processed pyruvoyl enzyme
Text: Woesearchaeota archaeon SpeD homolog (PIN80235)

[2] = target: T2, Ca. Diapherotrites archaeon SpeD homolog (PIN84875) (Candidatus Diapherotrites archaeon CG11_big_fil_rev_8_21_14_0_20_37_9, UniProt A0A2G9N1A6); assay: as above; type: biochemical; details: 50 mM Hepes pH 7.7, 100 mM NaCl, 1 mM DTT, 26 °C; pyruvoyl-dependent decarboxylation
T2 construct: self-processed pyruvoyl enzyme
T2 sequence (A0A2G9N1A6 1-75 limits assumed): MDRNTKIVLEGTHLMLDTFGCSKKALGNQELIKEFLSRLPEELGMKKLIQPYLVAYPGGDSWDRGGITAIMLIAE
T2 sequence (A0A2G9N1A6 76-142 limits assumed): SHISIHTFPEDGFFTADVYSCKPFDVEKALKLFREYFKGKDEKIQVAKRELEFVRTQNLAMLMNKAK
Text: Diapherotrites archaeon SpeD homolog (PIN84875)

[3] = target: T3, Ca. Marinimicrobia bacterium SpeD (PIS27863) (Fidelibacterota bacterium CG08_land_8_20_14_0_20_45_22, UniProt A0A2H0XSF6); assay: as above; type: biochemical, Candidatus Fidelibacterota bacterium; details: 50 mM Hepes pH 7.7, 100 mM NaCl, 1 mM DTT, 26 °C; pyruvoyl-dependent decarboxylation
T3 construct: self-processed pyruvoyl enzyme
T3 sequence (A0A2H0XSF6 1-72 limits assumed): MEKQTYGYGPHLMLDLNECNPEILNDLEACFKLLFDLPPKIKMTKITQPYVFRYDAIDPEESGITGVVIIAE
T3 sequence (A0A2H0XSF6 73-131 limits assumed): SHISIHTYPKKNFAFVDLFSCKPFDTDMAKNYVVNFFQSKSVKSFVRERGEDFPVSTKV
Text: Marinimicrobia bacterium SpeD (PIS27863)

[4] = tested on: Ca. Atribacteria bacterium SpeD2 (PIU25646); details: 50 mM Hepes pH 7.7, 100 mM NaCl, 1 mM DTT, 26 °C; pyruvoyl-dependent decarboxylation
Text: coupled CO2-release assay (NADH, A340), Michaelis-Menten fit on Ca. Atribacteria bacterium SpeD2 (PIU25646)

[5] = tested on: Ca. Sumerlaeota bacterium SpeD2 (MBN1518199); details: 50 mM Hepes pH 7.7, 100 mM NaCl, 1 mM DTT, 26 °C; pyruvoyl-dependent decarboxylation
Text: coupled CO2-release assay (NADH, A340), Michaelis-Menten fit on Ca. Sumerlaeota bacterium SpeD2 (MBN1518199)

[6] = target: T4, Ca. Electrothrix aarhusiensis SpeD homolog (RWX43081) (Candidatus Electrothrix aarhusensis, UniProt A0A3S3QFL2); details: 50 mM Hepes pH 7.7, 100 mM NaCl, 1 mM DTT, 26 °C; pyruvoyl-dependent decarboxylation
T4 construct: gene H206_03171
T4 sequence (A0A3S3QFL2 entry or part of it): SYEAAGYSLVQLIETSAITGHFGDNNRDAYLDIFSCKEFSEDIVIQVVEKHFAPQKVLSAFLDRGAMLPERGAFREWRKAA
T4 sequence (A0A3S3QFL2 entry or part of it): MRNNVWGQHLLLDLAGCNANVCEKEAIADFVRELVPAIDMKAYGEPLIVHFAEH
Text: coupled CO2-release assay (NADH, A340), Michaelis-Menten fit on Ca. Electrothrix aarhusiensis SpeD homolog (RWX43081)

[7] = tested on: Ca. Peribacteria bacterium SpeD (OGJ64158); details: 50 mM Hepes pH 7.7, 100 mM NaCl, 1 mM DTT, 26 °C; pyruvoyl-dependent decarboxylation
Text: coupled CO2-release assay (NADH, A340), Michaelis-Menten fit on Ca. Peribacteria bacterium SpeD (OGJ64158)

[8] = tested on: N=C(N)NCCC[C@H](N)C(=O)O; assay: purified protein; details: 50 mM Hepes pH 7.7, 100 mM NaCl, 1 mM DTT, 26 °C, pyruvoyl-dependent decarboxylation
[9] = substrate: N=C(N)NCCC[C@H](N)C(=O)O; assay: coupled CO2-release assay (NADH, A340), Michaelis-Menten fit; type: biochemical, Tribonema minus; details: 50 mM Hepes pH 7.7, 100 mM NaCl, 1 mM DTT, 26 °C, pyruvoyl-dependent decarboxylation
Text: coupled CO2-release assay (NADH, A340), Michaelis-Menten fit on Tribonema minus SpeD homolog (KAG5182568)

[10] = substrate: NCCC[C@H](N)C(=O)O; assay: purified protein; details: 50 mM Hepes pH 7.7, 100 mM NaCl, 1 mM DTT, 26 °C, pyruvoyl-dependent decarboxylation
[11] = substrate: N=C(N)NCCC[C@H](N)C(=O)O; assay: coupled CO2-release assay (NADH, A340), Michaelis-Menten fit; type: biochemical, Capsulimonas corticalis; details: 50 mM Hepes pH 7.7, 100 mM NaCl, 1 mM DTT, 26 °C, pyruvoyl-dependent decarboxylation
Text: coupled CO2-release assay (NADH, A340), Michaelis-Menten fit on Capsulimonas corticalis SpeD homolog (WP_119321511)

T1 sequence (A0A2G9MN15 1-79 limits assumed): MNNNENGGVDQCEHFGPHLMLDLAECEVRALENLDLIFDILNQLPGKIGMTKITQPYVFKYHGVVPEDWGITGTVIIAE
T1 sequence (A0A2G9MN15 80-150 limits assumed): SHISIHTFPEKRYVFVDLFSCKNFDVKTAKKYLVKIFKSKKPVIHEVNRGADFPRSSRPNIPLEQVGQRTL

Molecule: N=C(N)NCCC[C@H](N)C(=O)O [L-arginine]
- Km [1]: 350 ± 24 µM
- Km [2]: 95 ± 19 µM
- Km [3]: 760 ± 50 µM

- Km [4]: 330 ± 30 µM
- Km [5]: 21 ± 1.3 µM
- Km [6]: 89 ± 13 µM
- Km [7]: 270 ± 20 µM
Molecule: NCCC[C@H](N)C(=O)O [L-ornithine]

Molecule: Ca. Poseidonales archaeon SpeD homolog (DAC51064) (Candidatus Poseidoniales archaeon)
- Km [8]: 2800 ± 500 µM
- kcat [8]: 0.48 ± 0.042 s⁻¹
- kcat/Km [8]: 180 ± 19 M⁻¹ s⁻¹

Molecule: Nannochloropsis gaditana SpeD homolog (XP_005856029) (Microchloropsis gaditana)
- Km [8]: 1300 ± 100 µM
- kcat [8]: 0.049 ± 0.003 s⁻¹
- kcat/Km [8]: 39 ± 0.3 M⁻¹ s⁻¹

B1: Tribonema minus SpeD homolog (KAG5182568) (Tribonema minus) (protein)
chain: MRVPIQRTTVPQSSPLIRAHGSHIMLDFTEWWMPPEEGAEAVMELVRAALREEGVREVHHKAVVLGTRGESPPGFTAVVLIDESHVTAHCYADRGWLALDVFTCGGASTARVAAAIEAGVRRLSPRAVLQQRASAPRFVHRVD
notes: self-processed pyruvoyl enzyme
- Km [9]: 720 ± 110 µM
- kcat [9]: 0.08 ± 0.004 s⁻¹
- kcat/Km [9]: 110 ± 10 M⁻¹ s⁻¹

B2: Ca. Velamenicoccus archaeovorus LiM SpeD homolog (WP_128700171) (Candidatus Velamenicoccus archaeovorus) (protein)
chain: MPKNVTMPAGSFGLEVVLDLYGCDPQTIRSAKKLSEFTTKLCKLLKMKKYGKTLLPHFGYDKAHTAGYSMLQFIETSSITGHFSELWNSAYINIFSCREFDAHKAADFTVKFFGARKATRRVLLRK
- Km [10]: 73 ± 3.2 µM
- kcat [10]: 0.008 s⁻¹
- kcat/Km [10]: 113 M⁻¹ s⁻¹

B3: Capsulimonas corticalis SpeD homolog (WP_119321511) (Capsulimonas corticalis) (protein)
chain: MKNHTTYGAHLTLRIANIERRHALQGPHGVSDLLVDLIDRIGMRILAGPLTAEETGDPERRGWSSVAILYESHCAIHTYPELGEAFLDVFSCKTFPIAAITTLLTERFGEFAIVEQSLTDRGIHWGPNVEKELASWVLTRSEK
notes: as for B1
- Km [11]: 370 ± 50 µM
- kcat [11]: 0.08 ± 0.003 s⁻¹
- kcat/Km [11]: 220 ± 36 M⁻¹ s⁻¹

B4: Methanospirillum hungatei JF-1 SpeD2 (WP_011448617) (Methanospirillum hungatei JF-1) (protein)
chain: MIDTLVPTREGIATAPAKSDQEIMEEFKSRNAWGLYTSVDLKNCNPETIRDAGKIREFVIQLCDLIKMKRFGEPQIINFGPCERVAGYSMTQLIETSLIGAHFANETNAAYIDIFSCKEYAPQLTAEFCREFFGADKVTVHIAFRD
- Km [10]: 230 ± 18 µM
- kcat [10]: 0.05 s⁻¹
- kcat/Km [10]: 220 M⁻¹ s⁻¹
